Test results as given in PMC4832279, “Characterisation of Shigella Spa33 and Thermotoga FliM/N reveals a new model for C‐ring assembly in T3SS” (Molecular Microbiology, 2015).
Where “and” joins values, the source holds several entries; their conditions need not be identical. Equal entries are not always repeated.

Legend:
[1] = target: Spa33-FL/Ctrx2 (1:2 complex of Spa33-FL and Spa33-Ctrx) (Shigella flexneri) (UniProt P0A1K9); experiment: native MS; purified proteins or co-expressed, co-purified complexes, buffer-exchanged in 200 mM ammonium acetate pH 7.5; non-denaturing conditions; Synapt HDMS
[2] = target: Spa33-FL/C2(Y221R) (1:2 complex with Y221R in Spa33-FL and in both copies of Spa33-C) (Shigella flexneri) (UniProt P0A1K9); experiment: as above
[3] = target: Spa33-Cmbp (Spa33-C with a C-terminal maltose binding protein fusion) (Shigella flexneri) (UniProt P0A1K9); experiment: as above
[4] = target: Spa33-FL expressed from pETDuet-Spa33ΔRBS (N-terminal His-tag) (Shigella flexneri) (UniProt P0A1K9); experiment: as above
[5] = target: Spa33-Ctrx (Spa33-C with a C-terminal thioredoxin fusion) (Shigella flexneri) (UniProt P0A1K9); experiment: as above
[6] = target: Spa33-Cstrep (Spa33-C with an eight residue C-terminal Strep-tag) (Shigella flexneri) (UniProt P0A1K9); experiment: as above
[7] = target: Spa33-FL(CTD) (construct comprising only SpoA1 and SpoA2 of Spa33-FL) (Shigella flexneri); experiment: as above
[8] = target: Spa33-C (expressed alone from pET28b-Spa33-C, tag removed, 15N-labelled) (Shigella flexneri) (UniProt P0A1K9); experiment: as above
[9] = target: Thermotoga maritima FliM with an N-terminal His-tag (Thermotoga maritima) (UniProt Q9WZE6); experiment: as above
[10] = target: Thermotoga maritima FliN (C-terminal 132 residues of FliY) (Thermotoga maritima); experiment: as above
[11] = target: Spa33-FL/Cstrep2 (1:2 complex of Spa33-FL and Spa33-Cstrep) (Shigella flexneri) (UniProt P0A1K9); experiment: as above
[12] = target: Spa33-C (co-expressed from pRSFDuet-Spa33-C with Spa33-FL(CTD)) (Shigella flexneri) (UniProt P0A1K9); experiment: as above
[13] = target: Spa33-FL/C2 (1:2 complex of His-Spa33-FL and Spa33-C) (Shigella flexneri) (UniProt P0A1K9); experiment: as above
[14] = target: T1, Spa33-FL (full-length Spa33 with an N-terminal His-tag) (Shigella flexneri, UniProt P0A1K9 1-293); experiment: as above; conditions: both partners purified
T1 construct: Spa33 (SctQ), Shigella flexneri, full length; 293 residues by the printed range 192-293 at the extreme C-terminus; also called SctQ; His-Spa33-FL; source: E. coli B834 (DE3), from pET28b-Spa33, purified with Spa33-C (Ni-NTA, SEC)
T1 sequence: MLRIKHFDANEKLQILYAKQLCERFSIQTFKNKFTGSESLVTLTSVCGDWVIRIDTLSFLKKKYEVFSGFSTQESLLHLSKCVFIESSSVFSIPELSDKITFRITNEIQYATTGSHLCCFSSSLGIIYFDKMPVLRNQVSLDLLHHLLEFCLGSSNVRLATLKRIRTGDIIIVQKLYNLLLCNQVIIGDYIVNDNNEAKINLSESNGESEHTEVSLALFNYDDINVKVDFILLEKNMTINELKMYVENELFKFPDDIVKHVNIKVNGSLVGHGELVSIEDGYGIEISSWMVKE

[15] = target: the molecule itself; experiment: as above
[16] = target: T2, Spa33-FL(Y221R) with an N-terminal His-tag (Shigella flexneri, UniProt P0A1K9 1-293, Y221R); experiment: as above; conditions: both partners purified
T2 construct: Spa33 (SctQ), Shigella flexneri, full length, Y221R in the SpoA2 domain; also called Spa33-FL of Spa33-FL/C2(Y221R); source: E. coli B834 (DE3), from pET28b-Spa33(Y221R), purified with Spa33-C(Y221R) (Ni-NTA, SEC)
T2 sequence: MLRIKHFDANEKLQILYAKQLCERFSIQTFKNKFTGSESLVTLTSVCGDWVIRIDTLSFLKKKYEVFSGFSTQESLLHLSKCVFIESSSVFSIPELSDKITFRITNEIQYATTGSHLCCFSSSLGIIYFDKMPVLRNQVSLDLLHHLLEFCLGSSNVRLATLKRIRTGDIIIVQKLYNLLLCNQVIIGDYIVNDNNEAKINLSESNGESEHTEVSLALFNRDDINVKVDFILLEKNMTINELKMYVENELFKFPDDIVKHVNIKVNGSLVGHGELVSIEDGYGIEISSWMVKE

[17] = target: the molecule itself; experiment: crystal structure; 2.3 Å; 10 mg/ml Spa33 208-293, 21°C, sitting drop, 10% isopropanol, 0.1 M Na HEPES pH 7.0, 10% PEG 4000

Thermotoga maritima FliM with an N-terminal His-tag (Thermotoga maritima), sequence (Q9WZE6 whole entry): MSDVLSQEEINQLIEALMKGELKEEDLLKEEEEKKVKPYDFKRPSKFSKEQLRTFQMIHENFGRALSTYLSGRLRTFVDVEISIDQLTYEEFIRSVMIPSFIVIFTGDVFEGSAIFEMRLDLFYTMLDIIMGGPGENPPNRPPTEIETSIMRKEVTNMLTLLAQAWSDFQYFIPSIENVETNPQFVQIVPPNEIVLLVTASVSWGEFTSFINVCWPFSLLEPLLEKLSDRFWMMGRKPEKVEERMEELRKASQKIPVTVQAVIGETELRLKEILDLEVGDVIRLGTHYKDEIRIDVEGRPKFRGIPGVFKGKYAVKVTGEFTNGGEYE

Molecule: Spa33-FL/Ctrx2 (1:2 complex of Spa33-FL and Spa33-Ctrx) (from UniProt P0A1K9 1-293; P0A1K9 192-293)
- stoichiometry N [1]: 2

Molecule: Spa33-FL/C2(Y221R) (1:2 complex with Y221R in Spa33-FL and in both copies of Spa33-C) (from UniProt P0A1K9 1-293; P0A1K9 192-293)
- stoichiometry N [2]: 2

Molecule: Spa33-Cmbp (Spa33-C with a C-terminal maltose binding protein fusion) (from UniProt P0A1K9 192-293) (domain or fragment)
- stoichiometry N [3]: 2
- stoichiometry N [4]: 2

Molecule: Spa33-Ctrx (Spa33-C with a C-terminal thioredoxin fusion) (from UniProt P0A1K9 192-293) (domain or fragment)
- stoichiometry N [5]: 2
- stoichiometry N [4]: 2

Molecule: Spa33-Cstrep (Spa33-C with an eight residue C-terminal Strep-tag) (from UniProt P0A1K9 192-293) (domain or fragment)
- stoichiometry N [6]: 2
- stoichiometry N [4]: 2

Molecule: Spa33-FL(CTD) (construct comprising only SpoA1 and SpoA2 of Spa33-FL) (domain or fragment)
- stoichiometry N [7]: 2 and 3

Molecule: Spa33-C (expressed alone from pET28b-Spa33-C, tag removed, 15N-labelled) (from UniProt P0A1K9 192-293) (domain or fragment)
- stoichiometry N [8]: 2

Molecule: Thermotoga maritima FliN (C-terminal 132 residues of FliY) (domain or fragment)
- stoichiometry N [9]: 3
- stoichiometry N [10]: 2

Molecule: Thermotoga maritima FliY, full length (natural protein)
- stoichiometry N [9]: 1

Molecule: Spa33-FL/Cstrep2 (1:2 complex of Spa33-FL and Spa33-Cstrep) (from UniProt P0A1K9 1-293; P0A1K9 192-293)
- stoichiometry N [11]: 2 and 4

Molecule: Spa33-C (co-expressed from pRSFDuet-Spa33-C with Spa33-FL(CTD)) (from UniProt P0A1K9 192-293) (domain or fragment)
- stoichiometry N [12]: 2
- stoichiometry N [7]: 2

Molecule: Spa33-FL/C2 (1:2 complex of His-Spa33-FL and Spa33-C) (from UniProt P0A1K9 1-293; P0A1K9 192-293)
- stoichiometry N [13]: 2 and 4 and 6

B1: Spa33-C (alternative translation product of spa33, residues 192-293) (domain or fragment)
chain: MNDNNEAKINLSESNGESEHTEVSLALFNYDDINVKVDFILLEKNMTINELKMYVENELFKFPDDIVKHVNIKVNGSLVGHGELVSIEDGYGIEISSWMVKE
modifications: formylmethionine at the N-terminus (expected from the measured mass)
notes: Spa33 (SctQ), Shigella flexneri, residues 192-293; translated from an internal GTG start codon; Forms a homodimer (Spa33-C2) in the native mass spectrum; also called short variant of Spa33; source: E. coli B834 (DE3), made from the internal start site of pET28b-Spa33, co-purified with His-Spa33-FL (Ni-NTA, SEC)
- stoichiometry N [14]: 2
- stoichiometry N [15]: 2

B2: Spa33-C(Y221R) (domain or fragment)
chain: MNDNNEAKINLSESNGESEHTEVSLALFNRDDINVKVDFILLEKNMTINELKMYVENELFKFPDDIVKHVNIKVNGSLVGHGELVSIEDGYGIEISSWMVKE
modifications: formylmethionine at the N-terminus (as told for wild-type Spa33-C)
notes: Spa33 (SctQ), Shigella flexneri, residues 192-293 (Spa33-C), Y221R; also called Spa33-C of Spa33-FL/C2(Y221R)
- stoichiometry N [16]: 2

B3: Spa33 208-293 (C-terminal 86 residues of Spa33) (domain or fragment)
chain: ESEHTEVSLALFNYDDINVKVDFILLEKNMTINELKMYVENELFKFPDDIVKHVNIKVNGSLVGHGELVSIEDGYGIEISSWMVKE
notes: Spa33 (SctQ), Shigella flexneri, residues 208-293; Two copies of the dimer in the asymmetric unit; also called SpoA2 domain of Spa33; source: E. coli B834 (DE3), purified (Ni-NTA, carboxypeptidase A, SEC); not shown: His tag, C-terminal, cleaved
- binding result [17]: binds
